Measured values taken from publication PMC7367873, “Dissecting the sequence determinants for dephosphorylation by the catalytic subunits of phosphatases PP1 and PP2A” (Nature Communications, 2020).

B1: NEDD4L (protein, UniProt Q96PU5 2-975, looked up)
E3 ubiquitin-protein ligase …: ATGLGEPVYGLSEDEGESRILRVKVVSGIDLAKKDIFGASDPYVKLSLYVADENRELALVQTKTIKKTLNPKWNEEFYFRVNPSNHRLLFEVFDENRLTRDDFLGQVDVPLSHLPTEDPTMERPYTFKDFLLRPRSHKSRVKGFLRLKMAYMPKNGGQDEENSDQRDDMEHGWEVVDSNDSASQHQEELPPPPLPPGWEEKVDNLGRTYYVNHNNRTTQWHRPSLMDVSSESDNNIRQINQEAAHRRFRSRRHISEDLEPEPSEGGDVPEPWETISEEVNIAGDSLGLALPPPPASPGSRTSPQELSEELSRRLQITPDSNGEQFSSLIQREPSSRLRSCSVTDAVAEQGHLPPPSAPAGRARSSTVTGGEEPTPSVAYVHTTPGLPSGWEERKDAKGRTYYVNHNNRTTTWTRPIMQLAEDGASGSATNSNNHLIEPQIRRPRSLSSPTVTLSAPLEGAKDSPVRRAVKDTLSNPQSPQPSPYNSPKPQHKVTQSFLPPGWEMRIAPNGRPFFIDHNTKTTTWEDPRLKFPVHMRSKTSLNPNDLGPLPPGWEERIHLDGRTFYIDHNSKITQWEDPRLQNPAITGPAVPYSREFKQKYDYFRKKLKKPADIPNRFEMKLHRNNIFEESYRRIMSVKRPDVLKARLWIEFESEKGLDYGGVAREWFFLLSKEMFNPYYGLFEYSATDNYTLQINPNSGLCNEDHLSYFTFIGRVAGLAVFHGKLLDGFFIRPFYKMMLGKQITLNDMESVDSEYYNSLKWILENDPTELDLMFCIDEENFGQTYQVDLKPNGSEIMVTNENKREYIDLVIQWRFVNRVQKQMNAFLEGFTELLPIDLIKIFDENELELLMCGLGDVDVNDWRQHSIYKNGYCPNHPVIQWFWKAVLLMDAEKRIRLLQFVTGTSRVPMNGFAELYGSNGPQLFTIEQWGSPEKLPRAHTCFNRLDLPPYETFEDLREKLLMAVENAQGFEGVD
B2: FAM122B (protein, UniProt Q7Z309 2-247, looked up)
PABIR family member 2: AQEKMELDLEPDTSYGGTLRRSSSAPLIHGLSDLSQVFQPYTLRTRRNSTTIMSRHSLEEGLDMVNRETAHEREMQTAMQISQSWDESLSLSDSDFDKPEKLYSPKRIDFTPVSPAPSPTRGFGKMFVSSSGLPPSPVPSPRRFSRRSQSPVKCIRPSVLGPLKRKGEMETESQPKRLFQGTTNMLSPDAAQLSDLSSCSDILDGSSSSSGLSSDPLAKGSATAESPVACSNSCSSFILMDDLSPK
B3: PPFIBP1 (protein, UniProt Q86W92 1-1011, looked up)
Liprin-beta-1: MMSDASDMLAAALEQMDGIIAGSKALEYSNGIFDCQSPTSPFMGSLRALHLVEDLRGLLEMMETDEKEGLRCQIPDSTAETLVEWLQSQMTNGHLPGNGDVYQERLARLENDKESLVLQVSVLTDQVEAQGEKIRDLEFCLEEHREKVNATEEMLQQELLSRTSLETQKLDLMAEISNLKLKLTAVEKDRLDYEDKFRDTEGLIQEINDLRLKVSEMDSERLQYEKKLKSTKSLMAKLSSMKIKVGQMQYEKQRMEQKWESLKDELASLKEQLEEKESEVKRLQEKLVCKMKGEGVEIVDRDIEVQKMKKAVESLMAANEEKDRKIEDLRQCLNRYKKMQDTVVLAQGKDGEYEELLNSSSISSLLDAQGFSDLEKSPSPTPVMGSPSCDPFNTSVPEEFHTTILQVSIPSLLPATVSMETSEKSKLTPKPETSFEENDGNIILGATVDTQLCDKLLTSSLQKSSSLGNLKKETSDGEKETIQKTSEDRAPAESRPFGTLPPRPPGQDTSMDDNPFGTRKVRSSFGRGFFKIKSNKRTASAPNLAETEKETAEHLDLAGASSRPKDSQRNSPFQIPPPSPDSKKKSRGIMKLFGKLRRSQSTTFNPDDMSEPEFKRGGTRATAGPRLGWSRDLGQSNSDLDMPFAKWTKEQVCNWLMEQGLGSYLNSGKHWIASGQTLLQASQQDLEKELGIKHSLHRKKLQLALQALGSEEETNHGKLDFNWVTRWLDDIGLPQYKTQFDEGRVDGRMLHYMTVDDLLSLKVVSVLHHLSIKRAIQVLRINNFEPNCLRRRPSDENTIAPSEVQKWTNHRVMEWLRSVDLAEYAPNLRGSGVHGGLMVLEPRFNVETMAQLLNIPPNKTLLRRHLATHFNLLIGAEAQHQKRDAMELPDYVLLTATAKVKPKKLAFSNFGNLRKKKQEDGEEYVCPMELGQASGSASKKGFKPGLDMRLYEEDDLDRLEQMEDSEGTVRQIGAFSEGINNLTHMLKEDDMFKDFAARSPSASITDEDSNV
B4: PI4KB (protein, UniProt Q9UBF8 2-816, looked up)
Phosphatidylinositol 4-kinase …: GDTVVEPAPLKPTSEPTSGPPGNNGGSLLSVITEGVGELSVIDPEVAQKACQEVLEKVKLLHGGVAVSSRGTPLELVNGDGVDSEIRCLDDPPAQIREEEDEMGAAVASGTAKGARRRRQNNSAKQSWLLRLFESKLFDISMAISYLYNSKEPGVQAYIGNRLFCFRNEDVDFYLPQLLNMYIHMDEDVGDAIKPYIVHRCRQSINFSLQCALLLGAYSSDMHISTQRHSRGTKLRKLILSDELKPAHRKRELPSLSPAPDTGLSPSKRTHQRSKSDATASISLSSNLKRTASNPKVENEDEELSSSTESIDNSFSSPVRLAPEREFIKSLMAIGKRLATLPTKEQKTQRLISELSLLNHKLPARVWLPTAGFDHHVVRVPHTQAVVLNSKDKAPYLIYVEVLECENFDTTSVPARIPENRIRSTRSVENLPECGITHEQRAGSFSTVPNYDNDDEAWSVDDIGELQVELPEVHTNSCDNISQFSVDSITSQESKEPVFIAAGDIRRRLSEQLAHTPTAFKRDPEDPSAVALKEPWQEKVRRIREGSPYGHLPNWRLLSVIVKCGDDLRQELLAFQVLKQLQSIWEQERVPLWIKPYKILVISADSGMIEPVVNAVSIHQVKKQSQLSLLDYFLQEHGSYTTEAFLSAQRNFVQSCAGYCLVCYLLQVKDRHNGNILLDAEGHIIHIDFGFILSSSPRNLGFETSAFKLTTEFVDVMGGLDGDMFNYYKMLMLQGLIAARKHMDKVVQIVEIMQQGSQLPCFHGSSTIRNLKERFHMSMTEEQLQLLVEQMVDGSMRSITTKLYDGFQYLTNGIM
B5: PFKFB2 (protein, UniProt O60825 2-505, looked up)
6-phosphofructo-2-kinase/fruct …: SGASSSEQNNNSYETKTPNLRMSEKKCSWASYMTNSPTLIVMIGLPARGKTYVSKKLTRYLNWIGVPTKVFNLGVYRREAVKSYKSYDFFRHDNEEAMKIRKQCALVALEDVKAYLTEENGQIAVFDATNTTRERRDMILNFAEQNSFKVFFVESVCDDPDVIAANILEVKVSSPDYPERNRENVMEDFLKRIECYKVTYRPLDPDNYDKDLSFIKVINVGQRFLVNRVQDYIQSKIVYYLMNIHVQPRTIYLCRHGESEFNLLGKIGGDSGLSVRGKQFAQALRKFLEEQEITDLKVWTSQLKRTIQTAESLGVPYEQWKILNEIDAGVCEEMTYAEIEKRYPEEFALRDQEKYLYRYPGGESYQDLVQRLEPVIMELERQGNVLVISHQAVMRCLLAYFLDKGADELPYLRCPLHTIFKLTPVAYGCKVETIKLNVEAVNTHRDKPTNNFPKNQTPVRMRRNSFTPLSSSNTIRRPRNYSVGSRPLKPLSPLRAQDMQEGAD
B6: SRSF7 (protein, UniProt Q16629 1-238, looked up)
Serine/arginine-rich splicing …: MSRYGRYGGETKVYVGNLGTGAGKGELERAFSYYGPLRTVWIARNPPGFAFVEFEDPRDAEDAVRGLDGKVICGSRVRVELSTGMPRRSRFDRPPARRPFDPNDRCYECGEKGHYAYDCHRYSRRRRSRSRSRSHSRSRGRRYSRSRSRSRGRRSRSASPRRSRSISLRRSRSASLRRSRSGSIKGSRYFQSPSRSRSRSRSISRPRSSRSKSRSPSPKRSRSPSGSPRRSASPERMD

system: GFP-14-3-3β and its binding proteins; experiment: GFP-14-3-3β co-IP with LC-MS/MS label-free quantification, untreated versus PP1c-treated; parameters: species or system human; settings: pairwise comparison PP1 vs untreated, student's t-test; 3 replicates each; LC-MS/MS label-free quantification

Molecule | Difference (log2), PP1 vs untreated
B1 | -5.048 log2
B2 | -5.572 log2
B3 | -5.566 log2
B4 | -5.63 log2
B5 | -5.844 log2
B6 | -6.84 log2

system: GFP-14-3-3β; experiment: GFP-14-3-3β co-IP with LC-MS/MS, untreated GFP-14-3-3β versus GFP control (14-3-3 interactome); type: binding, human; settings: pairwise comparison untreated GFP-14-3-3β vs GFP, student's t-test; 3 replicates each; LC-MS/MS label-free quantification

Molecule | Difference (log2), untreated vs GFP
B1 | 4.407 log2
B2 | 4.879 log2
B3 | 6.964 log2
B4 | 4.864 log2
B5 | 3.999 log2
B6 | 7.205 log2
